{
  "source": "paper PMC11742450",
  "about": "“Engineering a membrane protein chaperone to ameliorate the proteotoxicity of mutant huntingtin” (Nature Communications, 2025)",
  "binders": {"B1": {"name": "2 × Strep-SUMO-PEX26 (237-305aa) (domain or fragment, UniProt Q7Z412 237-305, looked up)", "chain": "RQLWDSAVSHFFSLPFKKSLLAALILCLLVVRFDPASPSSLHFLYKLAQLFRWIRKAAFSRLYQLRIRD"}},
  "target": "T1, His6-hsPEX19-WT (human, UniProt P40855 1-299)",
  "T1 construct": "human PEX19 (hsPEX19); the human PEX19 gene cloned into pET-33b; Made in E. coli, so probably not farnesylated (surmise); also called human PEX19; His6-PEX19; source: E. coli BL21 Star (DE3), purified (Ni-NTA)",
  "T1 sequence (looked up)": "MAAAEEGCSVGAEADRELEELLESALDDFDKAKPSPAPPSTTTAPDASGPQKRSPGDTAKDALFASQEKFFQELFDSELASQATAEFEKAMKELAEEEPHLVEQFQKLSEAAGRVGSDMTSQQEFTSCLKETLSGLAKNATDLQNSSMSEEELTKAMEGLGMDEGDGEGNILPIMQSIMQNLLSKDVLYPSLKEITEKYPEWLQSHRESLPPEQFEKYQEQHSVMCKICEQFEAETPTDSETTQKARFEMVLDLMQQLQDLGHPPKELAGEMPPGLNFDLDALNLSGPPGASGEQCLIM",
  "assay": "pull-down; His6-PEX19 pulldown with PEX26; input, flowthrough and elution analysed by Western blot with Strep (PEX26) and PEX19 antibodies; hsPEX19 at about 3-fold the endogenous concentration",
  "conditions": "both partners purified",
  "data": [
    {"binder": "B1", "values": [
      {"measurement": "binding result", "value": "binds"}
    ]}
  ]
}
